Test results from US7741124B2, “Detection procedures for fibrinogen and/or fibrinogen derivatives” (priority 2003, dated 2010).

Test system: vancomycin
Experiment: Vancomycin-reactivity with fibrinogen split products (t-PA incubated plasma) or BrCN-cleaved fibrinogen
Format: biochemical
Settings: 50 μl 1000 IU/ml t-PA
Method: 25 μl P-Pool were incubated with 25 μl 0 mM or 15 mM CT in PBS for 60 min (RT). Then 50 μl 1000 IU/ml t-PA, 0.1% Triton X 100® in PBS were added. […] In addition, 10 mg/ml BrCN-cleaved fibrinogen in 6% BSA-PBS or in pooled serum were assayed in the FIATA.

B1: t-PA: t-PA, 1000 IU/ml in PBS, 0.1% Triton X 100 (protein, UniProt P00750 36-562, looked up)
Tissue-type plasminogen …: SYQVICRDEKTQMIYQQHQSWLRPVLRSNRVEYCWCNSGRAQCHSVPVKSCSEPRCFNGGTCQQALYFSDFVCQCPEGFAGKCCEIDTRATCYEDQGISYRGTWSTAESGAECTNWNSSALAQKPYSGRRPDAIRLGLGNHNYCRNPDRDSKPWCYVFKAGKYSSEFCSTPACSEGNSDCYFGNGSAYRGTHSLTESGASCLPWNSMILIGKVYTAQNPSAQALGLGKHNYCRNPDGDAKPWCHVLKNRRLTWEYCDVPSCSTCGLRQYSQPQFRIKGGLFADIASHPWQAAIFAKHRRSPGERFLCGGILISSCWILSAAHCFQERFPPHHLTVILGRTYRVVPGEEEQKFEVEKYIVHKEFDDDTYDNDIALLQLKSDSSRCAQESSVVRTVCLPPADLQLPDWTECELSGYGKHEALSPFYSERLKEAHVRLYPSSRCTSQHLLNRTVTDNMLCAGDTRSGGPQANLHDACQGDSGGPLVCLNDGRMTLVGIISWGLGCGQKDVPGVYTKVTNYLDWIRDNMRP
Q: Which results are given for B1?
A: time for 50% loss of vancomycin reactivity (15 mM CT-oxidized plasma): about 1 h; incubation time for complete loss of vancomycin reactivity (25 μl 15 mM CT-oxidized citrated plasma): 3 h; time for 50% loss of vancomycin reactivity (unoxidized plasma): 6 h
